Data on ten molecules can be found in patent publication US20240374671A1 (ACCELERON PHARMA, published 2024).

For assay [1], the target named is T1, dimeric hActRIIA (human, UniProt P27037 21-138).
T1 construct: also called ActRIIA DIMER; ActRIIA dimer
Put plainly: SPR (Biacore), 37 C. In general terms: Surface plasmon resonance follows binding to a sensor surface in real time, without labels.

The target in assay [2] is T2, monomeric hActRIIA (human, UniProt P27037 21-138, limits assumed).
T2 construct: also called ActRIIA MONOMER; ActRIIA monomer
T2 sequence (P27037 21-138 limits assumed): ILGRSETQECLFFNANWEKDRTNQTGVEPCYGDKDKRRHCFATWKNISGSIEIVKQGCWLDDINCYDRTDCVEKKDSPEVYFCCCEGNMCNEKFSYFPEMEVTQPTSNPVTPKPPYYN
Put plainly: SPR (Biacore), 37 C.

The target of assay [3] is T3, monomeric hActRIIB (human, UniProt Q13705 25-130, limits assumed).
T3 construct: also called ActRIIB MONOMER; ActRIIB monomer
T3 sequence: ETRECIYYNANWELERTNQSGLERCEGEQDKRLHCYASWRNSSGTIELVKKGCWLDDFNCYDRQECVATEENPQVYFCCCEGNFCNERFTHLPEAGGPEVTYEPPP
In words: SPR (Biacore), 37 C.

In assay [4] the target is T4, dimeric hActRIIB (human, UniProt Q13705 25-130).
T4 construct: also called ActRIIB DIMER; ActRIIB dimer
T4 sequence: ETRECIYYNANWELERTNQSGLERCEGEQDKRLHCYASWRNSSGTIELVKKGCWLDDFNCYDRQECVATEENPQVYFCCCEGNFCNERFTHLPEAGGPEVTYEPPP
Put plainly: SPR (Biacore), 37 C.

Assay [5] concerns the target T1, dimeric hActRIIA. Put plainly: SPR (Biacore), 37 C, mAb captured on anti-hFc chip, receptor injected. The method, then: (§1) Kinetic characterization of A01 antibody lineage (A01 (naïve parent), B01, C01, D01, E01 and F01) binding to monomeric and dimeric hActRIIB and hActRIIA was performed using standard BIACORE®-based analysis at 37° C. In brief, antibodies were captured on anti-hFcIgG Biacore chips and different concentrations of dimeric and monomeric ActRIIB or ActRIIA were injected in duplicates over the captured antibody and control surface. To obtain kinetic rate constants the data were double referenced and fit to a 1:1 interaction model using BiaEvaluation software (GE Healthcare). The equilibrium binding constant KD was determined by the ratio of binding rate constants kd/kₐ

Assay [6] concerns the target T2, monomeric hActRIIA. The assay is described as above. The method, then:
as §1

Assay [7] concerns the target T3, monomeric hActRIIB. Put plainly: SPR (Biacore), 37 C, mAb captured on anti-hFc chip, receptor injected, 1:1 fit. How it is done: as §1
Assay [8] addresses T4, dimeric hActRIIB. Described as above. The method, then:
as §1

T1 sequence (P27037 21-138): as the sequence (P27037 21-138 limits assumed) above

B1: D02 (antibody, human IgG1, V domains shown)
VH: QVQLVQSGAEVKKPGASVKVSCKASGYTFTSYRMHWVRQAPGQGLEWMGFIVPSGGSTSYAQKFQGRVTMTRDTSTSTVYMELSSLRSEDTAVYYCARVSMYAPEPMDVWGQGTTVTVSS
VL: DIQMTQSPSSVSASVGDRVTITCRASQGISRWLAWYQQKPGKAPKLLIYAASSLQSGVPSRFSGSGSGTDFTLTISSLQPEDFATYYCQQAFSHPWTFGGGTKVEIK
notes: Human IgG
For orientation: Kd means a measure of binding affinity in units of concentration. Broadly, the koff is the rate constant with which the complex falls apart. Lower therefore signals a long-lived complex. For orientation: kon means a measure of how fast the partners come together. A lower kon goes with slow association. Turning to B1, the Kd in assay [1] was 0.316 nM; in assay [2] it was 18.6 nM; in assay [3] it was 0.65 nM; in assay [4], 0.727 nM. Besides, the koff came to 0.000106 s⁻¹ in assay [1], 0.00684 s⁻¹ in assay [2], 0.000291 s⁻¹ in assay [3] and 0.000123 s⁻¹ in assay [4]. In addition, the kon stood at 336000 M⁻¹ s⁻¹ in assay [1], 369000 M⁻¹ s⁻¹ in assay [2], 447000 M⁻¹ s⁻¹ in assay [3] and 170000 M⁻¹ s⁻¹ in assay [4].

B2: B02 (antibody, human IgG1, V domains shown)
VH: QVQLVQSGAEVKKPGASVKVSCKASGYTFTGHKMHWVRQAPGQGLEWMGWINPASGWTNYAQKFQGRVTMTRDTSISTAYMELSRLRSDDTAVYYCARVSMYAPEPMDVWGQGTTVTVSS
VL: DIQMTQSPSSVSASVGDRVTITCRASQGISRWLAWYQQKPGKAPKLLIYAASSLQSGVPSRFSGSGSGTDFTLTISSLQPEDFATYYCQQAFSHPWTFGGGTKVEIK
notes: Human IgG
B2: the Kd in assay [1] was 0.338 nM; in assay [2] it was 8.13 nM; in assay [3] it was 1.1 nM; in assay [4], 0.649 nM. Also, the koff in assay [1] amounted to 0.000167 s⁻¹; in assay [2] it was 0.00593 s⁻¹; in assay [3], 0.001 s⁻¹; in assay [4], 0.00021 s⁻¹. The kon came to 495000 M⁻¹ s⁻¹ in assay [1], 729000 M⁻¹ s⁻¹ in assay [2], 905000 M⁻¹ s⁻¹ in assay [3] and 323000 M⁻¹ s⁻¹ in assay [4].

B3: A02 (antibody, human IgG1, V domains shown)
VH: QVQLVQSGAEVKKPGASVKVSCKASGYTFTSYGISWVRQAPGQGLEWMGWISPYNGNTNYAQKLQGRVTMTTDTSTSTAYMELRSLRSDDTAVYYCARVSMYAPEPMDVWGQGTTVTVSS
VL: DIQMTQSPSSVSASVGDRVTITCRASQGISRWLAWYQQKPGKAPKLLIYAASSLQSGVPSRFSGSGSGTDFTLTISSLQPEDFATYYCQQAFSHPWTFGGGTKVEIK
notes: Human IgG; also called A02 Parent
On to B3, for which, in assay [1], the dissociation constant Kd turned out to be 1.78 nM, the dissociation rate constant (koff) is 0.000627 s⁻¹ and the kon is 353000 M⁻¹ s⁻¹. Also, in assay [3], the dissociation constant (Kd) was found to be 22 nM, the koff came out at 0.0662 s⁻¹ and the kon turned out to be 3.02e+06 M⁻¹ s⁻¹. Also, in assay [4], the Kd was found to be 0.511 nM, the koff was determined as 0.000112 s⁻¹ and the kon is 219000 M⁻¹ s⁻¹.

B4: C02 (antibody, human IgG1, V domains shown)
VH: QVQLVQSGAEVKKPGASVKVSCKASGYTFTSYNMAWVRQAPGQGLEWMGIIRPSVGSTSYAQKFQGRVTMTRDTSTSTVYMELSSLRSEDTAVYYCARVSMYAPEPMDVWGQGTTVTVSS
VL: DIQMTQSPSSVSASVGDRVTITCRASQGISRWLAWYQQKPGKAPKLLIYAASSLQSGVPSRFSGSGSGTDFTLTISSLQPEDFATYYCQQAFSHPWTFGGGTKVEIK
notes: Human IgG
With B4, the Kd in assay [1] stood at 0.153 nM; in assay [2], 26.4 nM; in assay [3], 0.528 nM; in assay [4] it was 0.333 nM. Also, the koff in assay [1] was determined as 8.02e-05 s⁻¹; in assay [3], 0.000515 s⁻¹; in assay [4], 9.64e-05 s⁻¹. Also, the figures for the kon in assay [1], in assay [3] and in assay [4] were 524000 M⁻¹ s⁻¹, 975000 M⁻¹ s⁻¹ and 289000 M⁻¹ s⁻¹, respectively.

B5: D03 (antibody, human IgG1)
heavy: not shown
light: DIQMTQSPSSVSASVGDRVTITCRASQGISRWLAWYQQKPGKAPKLLIYAASSLQSGVPSRFSGSGSGTDFTLTISSLQPEDFATYYCQQAFSHPWTFGGGTKVEIK
notes: Human IgG
In assay [3], B5 returned a Kd of 0.194 nM, a koff of 0.000203 s⁻¹ and a kon of 1.05e+06 M⁻¹ s⁻¹. In assay [4], this molecule showed a Kd of 0.0226 nM, a koff of 1.04e-05 s⁻¹ and a kon of 459000 M⁻¹ s⁻¹.

B6: D01 (antibody, human IgG1, kappa, V domains shown)
VH: QVQLQESGPGLVKPSQTLSLTCTVSGGSIESGGYYWSWIRQHPGKGLEWIGGIYGSGSTYYNPSLKSRVTISVDTSKNQFSLKLSSVTAADTAVYYCARDSGIGYSYASSHGYYYYMDVWGKGTTVTVSS
VL: EIVLTQSPATLSVSPGERATLSCRASQSVGSNLAWYQQKPGQAPRLLIYGASTRATGIPARFSGSGSGTEFTLTISSLQSEDFAVYYCQQYFHFPLTFGGGTKVEIKR
notes: Human IgG
B6: the binding result in assay [5] is recorded as “no binding”. In addition, the binding result in assay [6] is listed as “no binding”. Also, in assay [7], the Kd was found to be 2.19 nM, the koff was found to be 0.00354 s⁻¹ and the kon came to 1.61e+06 M⁻¹ s⁻¹. In assay [8], binding was put at a Kd of 0.302 nM, the koff is 0.00025 s⁻¹ and the kon is 828000 M⁻¹ s⁻¹.

B7: B01 (antibody, V domains shown)
VH: QVQLQESGPGLVKPSQTLSLTCTVSGGSILSGGYYWSWIRQHPGKGLEWIGGIYYSGKTYYNPSLKSRVTISVDTSKNQFSLKLSSVTAADTAVYYCARDSGIGYSYASSHGYYYYMDVWGKGTTVTVSS
VL: EIVLTQSPATLSVSPGERATLSCRASQSVGSNLAWYQQKPGQAPRLLIYGASTRATGIPARFSGSGSGTEFTLTISSLQSEDFAVYYCQQYFHFPLTFGGGTKVEIK
notes: Human IgG
In the case of B7, in assay [5], the binding result is on record as “no binding”. Further, the binding result in assay [6] is “no binding”. In assay [7], this molecule showed a Kd of 3.64 nM, a koff of 0.0034 s⁻¹ and a kon of 1.09e+06 M⁻¹ s⁻¹. In assay [8], the Kd was 0.393 nM, the koff stood at 0.000246 s⁻¹ and the kon is 626000 M⁻¹ s⁻¹.

B8: E01 (antibody, human IgG1, kappa, V domains shown)
VH: QVQLQESGPGLVKPSQTLSLTCTVSGGSIGSGGYYWSWIRQHPGKGLEWIGGIYGSGSTYYNPSLKSRVTISVDTSKNQFSLKLSSVTAADTAVYYCARDSGIGYSYASSHGYYYYMDVWGKGTTVTVSS
VL: EIVLTQSPATLSVSPGERATLSCRASQSVGSNLAWYQQKPGQAPRLLIYGASTRATGIPARFSGSGSGTEFTLTISSLQSEDFAVYYCQQYFHFPLTFGGGTKVEIKR
notes: Human IgG
As to B8, the binding result in assay [5] is “no binding”. In addition, in assay [6], the binding result was “no binding”. In assay [7], this molecule gave a Kd of 2.45 nM, a koff of 0.00415 s⁻¹ and a kon of 1.7e+06 M⁻¹ s⁻¹. In assay [8], this molecule registered a Kd of 0.376 nM, a koff of 0.000292 s⁻¹ and a kon of 777000 M⁻¹ s⁻¹.

B9: F01 (antibody, human IgG1, kappa, V domains shown)
VH: QVQLQESGPGLVKPSQTLSLTCTVSGGSIKSGGYYWSWIRQHPGKGLEWIGGIYPSGSTYYNPSLKSRVTISVDTSKNQFSLKLSSVTAADTAVYYCARDSGIGYSYASSHGYYYYMDVWGKGTTVTVSS
VL: EIVLTQSPATLSVSPGERATLSCRASQSVGSNLAWYQQKPGQAPRLLIYGASTRATGIPARFSGSGSGTEFTLTISSLQSEDFAVYYCQQYFHFPLTFGGGTKVEIKR
notes: Human IgG
For the molecule B9, the binding result in assay [5] and in assay [6] was “no binding” each time. Moreover, the Kd amounted to 3.32 nM in assay [7] and 0.36 nM in assay [8]. Further, the figures for the koff in assay [7] and in assay [8] were 0.00444 s⁻¹ and 0.000216 s⁻¹, respectively. Further, the kon in assay [7] was 1.34e+06 M⁻¹ s⁻¹; in assay [8], 601000 M⁻¹ s⁻¹.

B10: C01 (antibody, human IgG1, kappa, V domains shown)
VH: QVQLQESGPGLVKPSQTLSLTCTVSGGSISSGGYFWSWIRQHPGKGLEWIGGIYYSGRTYYNPSLKSRVTISVDTSKNQFSLKLSSVTAADTAVYYCARDSGIGYSYASSHGYYYYMDVWGKGTTVTVSS
VL: EIVLTQSPATLSVSPGERATLSCRASQSVGSNLAWYQQKPGQAPRLLIYGASTRATGIPARFSGSGSGTEFTLTISSLQSEDFAVYYCQQYFHFPLTFGGGTKVEIKR
notes: Human IgG
For the molecule B10, the binding result in assay [5] is given as “no binding”. In addition, the binding result in assay [6] is listed as “no binding”. In assay [7], this molecule gave a Kd of 5.22 nM, a koff of 0.00712 s⁻¹ and a kon of 1.37e+06 M⁻¹ s⁻¹. Also, in assay [8], the affinity, expressed as Kd, was 0.236 nM; the koff was found to be 0.000188 s⁻¹; the kon amounted to 797000 M⁻¹ s⁻¹.
